Data published in patent publication US20030215792A1.

Target: CXCR4 receptor on cultivated primary astrocytes of rats (rat) (UniProt O08565)
Experiment: cell-based or functional assay

Sequence of UniProt O08565 (O08565 whole entry): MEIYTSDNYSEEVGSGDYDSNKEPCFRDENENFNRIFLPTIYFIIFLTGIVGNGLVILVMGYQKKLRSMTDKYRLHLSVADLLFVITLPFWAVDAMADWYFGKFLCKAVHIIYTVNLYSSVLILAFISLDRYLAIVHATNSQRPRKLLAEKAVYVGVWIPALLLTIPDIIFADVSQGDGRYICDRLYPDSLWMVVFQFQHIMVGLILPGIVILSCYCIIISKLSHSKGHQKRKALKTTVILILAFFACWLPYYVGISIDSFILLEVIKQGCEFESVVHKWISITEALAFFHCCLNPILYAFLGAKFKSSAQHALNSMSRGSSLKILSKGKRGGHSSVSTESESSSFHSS

decrease in intracellular calcium outflow in cultivated astrocytes after 5 minutes' pre-incubation with monoclonal antibody 12G5: 50%
Substance: SDF-1α (R&D Systems, Wiesbaden) (ligand)
